Experimental data: the DeepSol protein solubility set

Assay: soluble on expression in E. coli; label from the status in PepcDB or PDB records

Sequence | soluble on expression in E. coli
GALRSLVLIGHGSHHHGESARATQQVAEALRGRGLAGHLPYDEVLEGYWQQEPGLRQVLRTVAYSDVTVVPVFLSEGYVTETVLPRELGLGHQGPVPTGGVVRVLGGRRVRYTRPLGAHPGMADAIAAQARDTLPEGTDPADVTLLLLAARPGNAALETHAQALRERGQFAGVEVVLESREALTPESHAASAVPLSEWPSRVEAGQAVLVPFLTHLGKHAAERLQQALAQAAERFPQAPPLHVGGPVGEHPAVAEVVLALAAEGREDERGGDIDQAHAEAWAALRHLAERGGRLGEVLLTPYGGLFELRHTLDEGRATLDLQTVVTPEGLRDLTARDEAGRWRPIRTWRTLPRGWRAVLSPADLRLGLELLYPAVIEESYAHEHRRLHWTPWMSTARRQTGTLARVQRATPDQVDTVAAQVCASCLRTRLWAGHTLGQTIFSGVPGGLPCAEACTVLLAAVRDEVGREAMGSGD | soluble
MSLGMTHSFITEWDNTPKTKMRFSREVSFAELQRVTNCMAKHEIPSIEDFIWVLKEAAKVLSTLPNNVHVIPEPNDRLIFVGDLHGCFETLIRLFLGYPQQNIPRTGFPGEIVDGRRLVYFFNGDFVDRGGSGYQIVFLLAYMAIACPGSCYLNRGNHESEMFGLSTQGMLGNKFMSEMAGKFSGMDPETYRPAIGEFFCALPIAHTIDRNIFMVHGGVPLGDDLSNVPRAAPQSYFSTGSPAPIPKGLKPYKISNLDNLTPSRQKTTNFEDNPRKQNELWHSFVWNYDRLPYSADFMEENNFKTMVHSHTATPFHQITSFLPLEKTSGEKYSIQSVIKNQEMFDRMKAFFASHQLANSSKLSILEIFSSPTEGHHHHHH | not soluble
SNRTSAKSNLMLILLGLQMKEISNSDLYKLKEVRSVVTSLASFLFQQQNVGVMKSFDSLEKEAFRDLVNRLVSQGLIGLKDKTSETFDLLPLKNLFEYAEKRISVLMKLQCYTGTVQLSHVQEKLHLPYITTNGIVDVFKECLKRTKKQYPEVLKNWWIDLDPKNGMEDQNSGILLHLEYAAAYS | soluble
MGSDKIHHHHHHMEERIGLIDIGSNTIRLVIFGYNKKTGLNEILNIKTPARLSQYLTKSNEMNDEGIHVLKETLSSFRKVADKFNVDALYPIATAAIRQSKNREAIIKEIKQDIHIEIQIVPEEDEAFYGYYAITHTTDIENGISVDIGGGSTEVTLFKDKQLKEAHSFPFGVVSLKRQFFGDKAHNDKTAIKNMEQFLREQFSQLDWLSNQHIALVGVGGSARNVARIHQSAHAYPIGGVHNYKMTSKDINNVYDLIRKSSRDELTNLDGLSRDRVDIILPAISVFKTLFKKIDATQFTFSRKGIREGFIMNHISKRYPDEFNKSNVRKDALRHLANEYHIEETSANRRVKLAQSLLNQIISERSLNISAMEKELFIEGSYIYYLGSFIDSDSSSPHTYYLIANSMINGFSHKDRVKLALLASFKNKSLLKFYCKETQWFSNKEIDTIQALGGIIKFANTLNISHTSFVEEVKLKAKKDDKYDLLVYYKGSPIAEEYQANRQKKHIEKILKGKVSIIFTKS | not soluble
MGSDKIHHHHHHMEKEIAIITLHGMGDYKPNYFEALKNQLEKKLGTKWDKIAFEPVQYQPILQQNQIKIWQRMNSYPLDGSILRRFLLFGFSDAGSLEYSARSKVSVQYIEVQKEIMQALDKLYVELGNNDKPVIIIAQSLGCQVISNYIWDAKHDSGIFNGLEPDASAQLKSFRRLNSCVHLLTTGCNIPMFVAGLNPIEAIQKPNNEFTWFNYYDRDDVLGWPLSPLSDSYGALVKDHEINAGGIFSSWNPWSHGQYWTDKDVLNSLIDRIRRYI | not soluble
MGETAGREHGTVTRSAEYIGSFPVDDSCLDDQIQQLHTQLKSLKNCKSKRTVSLRFSVKGVKVYDEDETTLLMAHAMCRVSLSTARPSDAQFAFASHNPGNSDAQLYCHLFRARHARAAQFLNLLLCRCFQLYFLEKHPEEAQEECSGKKPSRAPSLLNQGFPLSVSALVSFRRAPTQGLLPGAKLFSQQSTEQVSSPEEGPTSSPTIVRKMAIRTKELRSGAYRSFTFTPLKQRHLQDKLSAPQGGMSVHRTLSRLKEFLRKGTSHCKGMHVSSSQFGRNRRSTGSSCVVLGWRV | not soluble
MGSDKIHHHHHHMLPSAPCSGWSHHTLKPLGAGTRGTGYIMPVTNMIHLDNRDHADRQSHGQPAHVLMLEQSPGVVPKSLLGKGLTYLREQWPKLIRYVENGSWPISNNPCENAIRLFCVGRRGWLFSDTVDGANACANLYTLVETSKTNGIDLYRYLAWLFRRLPLAKTVDDYDALLPWRMPVDIHVDPFDKERSTIDHEQENHSAGSLSA | not soluble
MKLQSYLMGEWREGQGEGVPVRDASTGEVLARVTAEGLPVKEAVAWGREVGGKALLALGFQERGRRLRALAQYLSERKEALYRLYATTGGTRRDAWYDVDGGIGVLYAYSSLARNLPEGNLLPEDDFLPLSKDLSFQGRHVLAPKGGITVQINAFNFPVWGLLEKFAPAFLAGVPTLAKPATPTAHVAEALVRTMLESGLLPEGSLQLLVGSVGDLFDALDHRDSVFFTGSKATADRLRRHPAFLERGALFNAEADSLNPAILGEKATEEELSRLAQEIAQELVIKTGQRCTAIRRVFAPRERLKALLEATRKRLEALRLGDPREEGVDLGPLASLEQKAEVEKAVAALLEAGARVYWRHPGREDGAFFPPTLLLAEDPWPGALHQVEPFGPVATFFPYGSREEAARLAALGGGSLVATLATSDPEEARFYLLALAPYVGRLHLLNARTAASSTGHGSPLPRLLHGGPGRAGGGEELGGLLSVRRHLGRVALQADPWLLSALTGEYAKGAEKPAEVHPFRKAYEDLEVGETLTTHRRTVTEADIALFSALSWDHFYAHTDEIAARESLFGKRVAHGYFVLSAAAGLFVDPAPGPVLANYGLEGLRFLEPVGAGDTLQVRLTVKRKRPRDEKTGVVEWAAEVVNQEGKPVATYTVLTLVARKGALAKGS | soluble
MGSDKIHHHHHHMSAEEQINQFKKFCAAIISFDEEEWQAMEKCLRIKFLSKDDYFLRQGKTCSRMGFVCKGYTRLFFLIDGEEHTKDFCFENTFTGSLASFLVRKPAAFNVVAMEDTYMLTIEYNALMELYKNYMCWNTFGRIVVEQFAIRKENREVTFLLNTPEKRYEEVSDQYPHLLQRAPLKMIASYLNMTPETLSRIRSKKTK | not soluble
MGVSLSKGGNVSLTKEAPGLTAVIVGLGWDVRTTTGTDFDLDASALLTNVEGKVANDQNFVFFNNLKSPDGSVEHTGDNITGEGEGDDEQIKVDLATVPADVDKIVFPVSIYDAENRQQSFGQVRNAFIRVVNQAGGAEIARYDLSEDASTETAMVFGELYRNGPEWKFRAIGQGYASGLRGIAQDFGVNV | not soluble
MGIFSRFADIVNSNVTSLLDKAENPEKMIRLIIQEMEDTLVEVRTASAKALADKKELTRKISSIEAQVADWQDKASLALLKQREDLARSALIEKQKVQDILSSLKTEFILVEESIEKLSAELIELETKLTETRARQQALVIRQQTAQHRNDIKSHTHSGKTERAMAKFEQYERRIDELDAKADSYSIGKANSLEQEFAELQAQDEIDKEIERLKEQMKKDALEHHHHHH | not soluble
MVLKGDAKRIVAMSSTHIAMLDAIGEVRCITGVSGIDYISNPDIQARRDSIGDVGYEGNINYELLLSLDPDLVLLYGVNGASAMESKLEELDIPFMYVGDYLEESPLGKAEWMVVLSEVTGKREKGEKAFAAIPVRYNALKKKVADSTLGLEHHHHHH | not soluble
MGVDKKQKQRKTNPFELKFNKSKHDILGRKKGAQVGAPTASRKRAHEQREQTLGVEYDRKNKISKIVDKRLGEKDGKSEEEKGAMRFTEERVKNYKRASKFNLTDDGDEEEEVLTHKGKALSDIEKYDKSMISDSDDDEEPGNLGSNMVKVAHFGGGEKTAEEHVREKISREDMISNLIAKTKLARHEKQQQKDELELMTESLDSKYQALMGKMKASFRPTGRQPLEKDDYDKLTITLKTEADARATPADRKLSEEEEALKEKERLETLEAAPDADVDIDAGSKADARKVQAKNSRFEVKFDDEGGLIDEDTVEKSRILKKNLDGSDESDDDEDLEDEEEDLDDLLEDEDELEEDSDDEEAQEAQKVVKKAKKSAPEPAETLPFVFEMPKNYKKFCALLEKHSESMDLVLERLVKCHHPSLKEGNKKRLNKLFLLCLRWFDDMSKEELTAESVKEMNLAQETMHALMKFDIQYGVRCVRALIRQHWKGRQDKQKSSPVSFGLISAIRLVSGLFPVADSWHPVVVPALFLATEALCSAKCANLNALAKQIQLANAIVEYVSESKRYVPELVAFARSALLLAVTEKSEKFATNGFPISKPHTEMLCFEEKYTGPALQPISLTTIFNNSPSDPSLKLHVLRALLSLIQHLRVIYSNQNETYSIVFKPFLRILESIQAKNLPAEVQEELETLCASMKAEIGAKCRLVHLSLVKTEKSMLKMLEPRFEWDFDPERPHHGPKDEKKKLTKNLRNERRGAIKELRKDTAFLARKQLSSVKTKDRARIAATKRVMGGLMQQQGEWNKEKRTADVEKKKDKK | soluble
MTEGLAVELAGLRSFSIVMPAYNVVTQRGERIFRETLESIAASCRYLQQHFPYTPEGELILISDGSTDRTCDVAMAGWPNAVPLQLVGLPTNVGIAAARNIGVRLAKGEVIFFCDADDLYRPEHLFLALSVLNQPLPEPYAPAYFGAVRTGVYCRDRLHPYWHKSLEQTLVLNLAVRREVHEFIGGFPEDEVFRQFRYGAEDVAYAYWLHQFCHTARLEQRTVEYRRFPNSVFDRQLKKFQAAPGTVADDLDEGDRQQEAQIRQIMATRLQELQAKAAQGVALEHHHHHH | not soluble
SHMRVLVCGGAGYIGSHFVRALLRDTNHSVVIVDSLVGTHGKSDHVETRENVARKLQQSDGPKPPWADRYAALEVGDVRNEDFLNGVFTRHGPIDAVVHMCAFLAVGESVRDPLKYYDNNVVGILRLLQAMLLHKCDKIIFSSSAAIFGNPTMGSVSTNAEPIDINAKKSPESPYGESKLIAERMIRDCAEAYGIKGICLRYFNACGAHEDGDIGEHYQGSTHLIPIILGRVMSDIAPDQRLTIHEDASTDKRMPIFGTDYPTPDGTCVRDYVHVCDLASAHILALDYVEKLGPNDKSKYFSVFNLGTSRGYSVREVIEVARKTTGHPIPVRECGRREGDPAYLVAASDKAREVLGWKPKYDTLEAIMETSWKFQRTHPNGYASQENGTPGGRTTKL | soluble
MAHHHHHHMSARMQFPLSQRRHTNIAVVRYSKNGVKLEIACYKNKVISYRSGTENRLDEVLQVERIFANVARGYLASEKEIQTVFGGEMTEAEAIRYMLDHGELQVAQQERAAEVDEMFKDIAVIISQKCINTKTQRPFPPQVVEQALRSIGAAVKLDQSVKKQALGLIHLLIDSDILPIARANMKIRCTTTSEAALEKLRGWCRDNDADVVSDSVTGKTSDGGSGNFGHALLLLMQPNLFRDLDHFVKEALPSGSTIHMVEAAVTEVGDSDVLLDANAVSLANAQPGRAEEEATMAGSRRAAAAPSSSSAGEVNRGCSDGRGGETGMSSNLGQGADNASNGQHQSDGEGKRGRTGKAKGTTRRGHRGRQSNNSDGDDLLDGSTDGAAEGGLGVDHDIAAGLQRLGLDPSHDLQDDSDDDGGRGRGSRGKKKKNASGTGGGPYQSQGAGGRKAGGGAAAVDDDDNAGKGKKGRKNAKSKKVAAAEKAKPGAEGAFSDSDEELMGNRKQRAKKQQETRMQQGGNDWHEEDFDYGEDEEAEVQLS | soluble
MGHHHHHHGGHMSLLRFLEVVSEHIKNLRNHIDLETVGEMIKLIDSARSIFVIGAGRSGYIAKAFAMRLMHLGYTVYVVGETVTPRITDQDVLVGISGSGETTSVVNISKKAKDIGSKLVAVTGKRDSSLAKMADVVMVVKGKMKQERDEILSQLAPLGTMFELTAMIFLDALVAEIMMQKHLTEKDLEARHAVLEEGGS | soluble
